This note sets out measurements from patent US20140175018A1.

Bridge positions count the residues as written; N and C are the ends. Side chains are listed from the residue outwards. * marks the point of attachment. Biotin = O=C1N[C@H]2[C@H](CS[C@H]2CCCCC(=O)*)N1; PEG = not defined here

What all share (test): cell-based or functional assay
Test [1] concerns the target T1, chemokine (C-C motif) receptor 10 (CCR10) (human) (UniProt P46092).
T1 sequence (looked up): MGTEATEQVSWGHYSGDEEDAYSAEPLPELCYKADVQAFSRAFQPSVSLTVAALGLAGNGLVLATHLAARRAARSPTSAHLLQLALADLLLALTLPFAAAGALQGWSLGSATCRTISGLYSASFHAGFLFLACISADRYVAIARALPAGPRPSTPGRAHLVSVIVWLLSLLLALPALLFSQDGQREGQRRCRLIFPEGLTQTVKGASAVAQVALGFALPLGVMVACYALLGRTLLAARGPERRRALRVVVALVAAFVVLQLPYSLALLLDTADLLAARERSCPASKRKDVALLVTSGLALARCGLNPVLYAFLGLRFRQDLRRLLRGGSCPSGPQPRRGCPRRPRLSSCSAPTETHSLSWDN

Test [2] concerns the target chemokine (C-X-C motif) receptor 3 (CXCR3) (human) (UniProt P49682).
For test [3], the target named is T2, chemokine (C-C motif) receptor 4 (CCR4) (human) (UniProt P51679).
T2 sequence (looked up): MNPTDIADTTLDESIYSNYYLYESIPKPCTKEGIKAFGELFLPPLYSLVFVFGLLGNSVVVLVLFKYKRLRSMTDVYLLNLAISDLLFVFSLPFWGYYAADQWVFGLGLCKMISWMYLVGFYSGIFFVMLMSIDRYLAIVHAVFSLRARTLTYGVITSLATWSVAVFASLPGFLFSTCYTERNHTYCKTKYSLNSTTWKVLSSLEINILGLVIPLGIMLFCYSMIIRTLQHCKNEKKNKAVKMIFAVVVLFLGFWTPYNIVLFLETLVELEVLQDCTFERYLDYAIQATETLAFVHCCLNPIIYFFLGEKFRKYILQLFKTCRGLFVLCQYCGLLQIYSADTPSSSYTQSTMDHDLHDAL

chemokine (C-X-C motif) receptor 3 (CXCR3) (human), sequence (P49682 whole entry): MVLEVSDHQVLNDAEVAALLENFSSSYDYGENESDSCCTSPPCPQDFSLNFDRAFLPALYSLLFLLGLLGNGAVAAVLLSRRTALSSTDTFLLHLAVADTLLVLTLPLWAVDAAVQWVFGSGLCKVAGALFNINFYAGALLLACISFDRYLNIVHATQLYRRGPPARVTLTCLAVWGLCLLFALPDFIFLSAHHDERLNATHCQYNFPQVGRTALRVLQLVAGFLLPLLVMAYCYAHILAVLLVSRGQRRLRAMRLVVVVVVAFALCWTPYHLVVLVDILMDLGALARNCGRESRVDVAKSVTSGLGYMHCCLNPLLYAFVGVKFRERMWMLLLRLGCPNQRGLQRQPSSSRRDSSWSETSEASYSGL

B1: biotinCTAC (CCL27): CTAC derivatised at Lys(87) with PEG-Biotin (ligand)
chain: FLLPPSTACCTQLYRKPLSDKLLRKVIQVELQEADGDCHLQAFVLHLAQRSICIHPQNPSLSQWFEHQERKLHGTLPKLNFGMLRKK([PEG-Biotin])G-OH
modifications: disulfide 10-53, 9-38; reading uncertain
As to B1, the EC50 (agonist activity, Aequorin assay) in test [1] was 0.0494 µM.

B2: recombinant native ITAC (ligand, UniProt O14625 22-94, looked up)
chain: FPMFKRGRCLCIGPGVKAVKVADIEKASIMYPSNNCDKIEVIITLKENKGQRCLNPKSKQARLIIKKVERKNF
In test [2], B2 yielded an EC50 (agonist activity, Aequorin assay) of 0.0007 µM.

B3: biotinITAC (CXCL11): ITAC derivatised with Biotin at an additional C-terminal Lysine after a PEG spacer (ligand)
chain: FPMFKRGRCLCIGPGVKAVKVADIEKASIMYPSNNCDKIEVIITLKENKGQRCLNPKSKQARLIIKKVERKNFX
modifications: X74 = PEG-K(Biotin)
In test [2], B3 returned an EC50 (agonist activity, Aequorin assay) of 0.0157 µM.

B4: recombinant native MDC (ligand, UniProt O00626 25-93, looked up)
chain: GPYGANMEDSVCCRDYVRYRLPLRVVKHFYWTSDSCPRPGVVLLTFRDKEICADPRVPWVKMILNKLSQ
Take B4: in test [3], the EC50 (agonist activity, Aequorin assay) came to 0.0036 µM.

B5: recombinant native CTAC (ligand, UniProt Q9Y4X3 25-112, looked up)
chain: FLLPPSTACCTQLYRKPLSDKLLRKVIQVELQEADGDCHLQAFVLHLAQRSICIHPQNPSLSQWFEHQERKLHGTLPKLNFGMLRKMG
In test [1], B5 returned an EC50 (agonist activity, Aequorin assay) of 0.0335 µM.
